The results in this text go back to the RNAGym collection of RNA variant scans (doi:10.1073/pnas.2313332121).

B1: TPR t1 (parent)
chain: GACCAAUCUGCCCUCAGAGCUCGAGAACAUCUUCGGAUGCAGAGGAGGCAGGCUUCGGUGGCGCGAUAGCGCCAACGUCCUCAACCUCCAAUGCAUCCCACCACAUGAUGAUGCCUGAAGAGCCUUGGUUUUUUG

In this data set the parent is B1. In words: polymerase ribozyme fitness, log enrichment relative to wild type (log ratio); higher = more active; in vitro selection for triplet polymerase activity. The gist of the method: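 Mutant libraries of each subunit of a heterodimeric triplet polymerase ribozyme were built by PCR and transcribed. Each library went through one round of in vitro selection in triplicate: annealing with biotinylated primer, partner subunit and triplets, frozen incubation at −7 °C, gel excision of extended constructs, streptavidin-bead capture and RT-PCR. Input and output libraries were Illumina-sequenced; only genotypes with ≥10 input reads and ≥1 read per output were kept. Fitness is log2(genotype enrichment/wild-type enrichment), using inverse-variance-weighted replicate averages.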
On to G36U A103U C114U, for which the “polymerase ribozyme fitness (log ratio)” value is -5.26.

A37G C64U: the “polymerase ribozyme fitness (log ratio)” value was -0.479.

Turning to C70U C102A C124G, the “polymerase ribozyme fitness (log ratio)” value is -1.09.

For A2U U32G G60U G69A U92A C114A U116A C124G, the “polymerase ribozyme fitness (log ratio)” value was -6.22.

As to U9C G63U C104U, the “polymerase ribozyme fitness (log ratio)” value was -0.467.

C11U G113U: the “polymerase ribozyme fitness (log ratio)” value was -2.7.

Turning to C11U A46U C86G C104U, the “polymerase ribozyme fitness (log ratio)” value was -2.24.

As to G42A U54C U132A, the “polymerase ribozyme fitness (log ratio)” value was -1.62.

Take U9G G52U C80A G110U: the “polymerase ribozyme fitness (log ratio)” value is -5.82.

Regarding C53U C56U C89A G120A, the “polymerase ribozyme fitness (log ratio)” value was -1.49.

Regarding C15G C40U, the “polymerase ribozyme fitness (log ratio)” value was -2.91.

Turning to G47U C53U A111G, the “polymerase ribozyme fitness (log ratio)” value is -1.54.

Turning to A6C G10A C13A A75G U125G, the “polymerase ribozyme fitness (log ratio)” value is -0.518.

For the variant G36C C72A C94A C104U, the “polymerase ribozyme fitness (log ratio)” value is -3.64.

C56G G127U: the “polymerase ribozyme fitness (log ratio)” value was -1.1.

For C20U G48C U54G A74C, the “polymerase ribozyme fitness (log ratio)” value is -3.11.

Turning to G10U C72U, the “polymerase ribozyme fitness (log ratio)” value was -0.415.

As for U14A C79G A83U, the “polymerase ribozyme fitness (log ratio)” value is -5.11.

Consider A29U G47U, for which the “polymerase ribozyme fitness (log ratio)” value is -3.05.

Take G45U G58A G77A C82A: the “polymerase ribozyme fitness (log ratio)” value is -1.74.

In the case of G42C G44A A50C C82U C85U, the “polymerase ribozyme fitness (log ratio)” value is -3.31.

As to G63A C79U A83G C123G, the “polymerase ribozyme fitness (log ratio)” value is 0.0609.

Consider C53U G71A, for which the “polymerase ribozyme fitness (log ratio)” value is -0.671.

On to A6U C40G G51U, for which the “polymerase ribozyme fitness (log ratio)” value is -4.16.

On to G60U G110C, for which the “polymerase ribozyme fitness (log ratio)” value was -2.76.

For the variant C11G A50C U92G C114A G122C U131C, the “polymerase ribozyme fitness (log ratio)” value was -3.35.

For G51U C53U C88G, the “polymerase ribozyme fitness (log ratio)” value is -2.23.

For A46G G113A G120U U133A, the “polymerase ribozyme fitness (log ratio)” value is -3.17.

With G10A C53U G61C G122A G127U U129A, the “polymerase ribozyme fitness (log ratio)” value was 0.0511.

A24G U87A: the “polymerase ribozyme fitness (log ratio)” value is -1.94.

For the variant C86A G120C, the “polymerase ribozyme fitness (log ratio)” value is -0.326.

A5C G61A: the “polymerase ribozyme fitness (log ratio)” value is -0.269.

On to G10U C62U C72A C88U C89G A121G U132C, for which the “polymerase ribozyme fitness (log ratio)” value was -1.87.

In the case of C4A C72U U130A, the “polymerase ribozyme fitness (log ratio)” value was -2.53.

In the case of G10A C13U G42C A46G C101U G110C, the “polymerase ribozyme fitness (log ratio)” value is -6.91.

With G71U A91G G93U, the “polymerase ribozyme fitness (log ratio)” value was -2.17.

For G10U A26G, the “polymerase ribozyme fitness (log ratio)” value was -2.71.

As for C20G C40A C70U U92A G93A G113C, the “polymerase ribozyme fitness (log ratio)” value was -6.62.

Consider G71C U92C, for which the “polymerase ribozyme fitness (log ratio)” value was -2.76.

For the variant C8U C102A, the “polymerase ribozyme fitness (log ratio)” value was -1.17.

With G117A G120U, the “polymerase ribozyme fitness (log ratio)” value was -1.9.

Regarding C62U C73U, the “polymerase ribozyme fitness (log ratio)” value is -0.0195.

In the case of C11A G60U U112A A118U, the “polymerase ribozyme fitness (log ratio)” value was 0.776.

G42C U109C: the “polymerase ribozyme fitness (log ratio)” value was -6.86.

Turning to G42A G57U G122U C123U, the “polymerase ribozyme fitness (log ratio)” value is -2.35.

In the case of U21C, the “polymerase ribozyme fitness (log ratio)” value was -0.0619.

Turning to A46U C62G C88A, the “polymerase ribozyme fitness (log ratio)” value was -4.01.

Consider G60U G65U A121C, for which the “polymerase ribozyme fitness (log ratio)” value is -6.44.

Consider C82G C86A A121U, for which the “polymerase ribozyme fitness (log ratio)” value was 1.39.

Take U30A A41C G113A C124A: the “polymerase ribozyme fitness (log ratio)” value was -5.47.

Take C12A G48A U55C G57U U59G C85U: the “polymerase ribozyme fitness (log ratio)” value is -3.61.

As for A46U G47A A50G G60A, the “polymerase ribozyme fitness (log ratio)” value was -3.56.

For A121G U133G, the “polymerase ribozyme fitness (log ratio)” value was 1.55.

U7G C22U C101A C114A A118U A119U: the “polymerase ribozyme fitness (log ratio)” value was -5.29.

Consider U9G G60A U92G, for which the “polymerase ribozyme fitness (log ratio)” value was -2.36.

Take C13U C72U A74C: the “polymerase ribozyme fitness (log ratio)” value was determined as 0.529.

Turning to A2G G69A C89G G110U, the “polymerase ribozyme fitness (log ratio)” value is -6.

As for A43U A50U G60A U112A, the “polymerase ribozyme fitness (log ratio)” value is -4.39.

On to G120A G127C G135U, for which the “polymerase ribozyme fitness (log ratio)” value is -0.669.

In the case of G61U U87A, the “polymerase ribozyme fitness (log ratio)” value was -0.452.

Regarding A24C G61U, the “polymerase ribozyme fitness (log ratio)” value is -6.19.

For C4A G117C, the “polymerase ribozyme fitness (log ratio)” value was -4.54.

Turning to C62U U109A G117U A119C, the “polymerase ribozyme fitness (log ratio)” value is -7.11.

With A74G C101U, the “polymerase ribozyme fitness (log ratio)” value is 0.132.

In the case of A41U A66C C70U C97U, the “polymerase ribozyme fitness (log ratio)” value is -5.29.

For the variant C97G U112G, the “polymerase ribozyme fitness (log ratio)” value was -5.5.

For A84U C102U C123U, the “polymerase ribozyme fitness (log ratio)” value was -1.1.

For the variant U21G A50U G69A A108G G110A U112G, the “polymerase ribozyme fitness (log ratio)” value is -6.33.

In the case of G10A G51U C56G, the “polymerase ribozyme fitness (log ratio)” value was -5.12.

For the variant C11G C49A G61A G120U, the “polymerase ribozyme fitness (log ratio)” value was determined as 2.28.

Turning to G69C A75G, the “polymerase ribozyme fitness (log ratio)” value was -2.54.

Take C56U A83C U106A A118U C123G: the “polymerase ribozyme fitness (log ratio)” value came to 1.63.

On to A74U C85U C94A, for which the “polymerase ribozyme fitness (log ratio)” value was -1.55.

Consider A46C G63U U106A G117A, for which the “polymerase ribozyme fitness (log ratio)” value is -3.84.

In the case of C11U C34A U87A, the “polymerase ribozyme fitness (log ratio)” value is -3.12.

Turning to G61A A103G, the “polymerase ribozyme fitness (log ratio)” value was -2.38.

With G61A A103U, the “polymerase ribozyme fitness (log ratio)” value is -4.95.

As to A26C G69U, the “polymerase ribozyme fitness (log ratio)” value is -3.86.

With G69U G135U, the “polymerase ribozyme fitness (log ratio)” value was -0.532.

G48U C72U: the “polymerase ribozyme fitness (log ratio)” value was -1.19.

For G69U A83U G127A, the “polymerase ribozyme fitness (log ratio)” value is -1.18.

In the case of U9A C70U U78A, the “polymerase ribozyme fitness (log ratio)” value is -0.654.

With G52C G71C C102U C104A, the “polymerase ribozyme fitness (log ratio)” value was -3.27.
